Test results as given in patent US20250066819.

Experiments:
Assay in all cases: cell_activity
[1] = test system: Type I-F3a CAST (TniQ-Cascade + TnsABC) (Vibrio cholerae HE-45)
[2] = test system: Type I-F3a CAST with Cas6 R117A Cas6 R117A (Vibrio cholerae HE-45); settings: below detection
[3] = test system: Type I-F3a CAST with Cas6 R121A Cas6 R121A (Vibrio cholerae HE-45); settings: below detection
[4] = test system: Type I-F3a CAST with Cas6 R125A Cas6 R125A (Vibrio cholerae HE-45); settings: below detection

Row | Substance | activity ([1]; transposition efficiency of viable recipients (+/- 0.2), E. coli, conjugation assay, PAM not stated) [%] | activity [2] [cfu] | activity [3] [cfu] | activity [4] [cfu] | relative transposition efficiency (fold of native) ([1]; printed as ~10-3-fold less efficient than native crRNA)
1 | lacZ crRNA, native I-F3a CAST repeat ; lacZ target | 1.4 | < 1e-07 | < 1e-07 | < 1e-07 | –
2 | lacZ crRNA, canonical type I-E repeat ; lacZ target | – | – | – | – | 0.001
